Data: a protein production outcome set (Wang et al. 2014)

Experiment: label from the status in PepcDB records

Sequence | protein production
MVKVSIICTNYNKGSWIGEAIDSFLKQETSFPYEIIIVDDASTDHSVHIIKTYQKQYPDLIRAFFNQENQGITKTWSDICKKARGQYIARCDGDDYWIDPFKLQKQIDLLETSPESKWSNTDFDMVDSKGNIIHKDVLKNNIIPFMDSYEKMLALKGMTMASTWLVETKLMLEINDRINKDAVDDTFNIQLELFKKTKLAFLRDSTTVYRMDAESDSRSKDSEKLAQRFDRLLETQLEYIEKYPDSDYKKVLEYLLPKHNDFEKVLAQDGKNVWDNQQITIYLAKGDDQEFSEENCFQFPLQHSGNIQLTFPENIRKIRIDLSEIPSYYRQVSLVNTTVNTELLPTWTNAKVFGYSYYFIAPDPQMIYDLTAQEGQDFKLTYEWFNVDRPSQPDFLANHLVKELDQKKVELKMLSPYKYQYQKAVAERDLYLEQLNEMVVRYNSVTHSRRWTIPTKIINLFRRKK | failed
MVKVTYDIPTCEDYCALRINAGMSPKTREAAEKGLPNALFTVTLYDKDRLIGMGRVIGDGGTVFQIVDIAVSKSYQGQDYGSLIMEHIMKYIKNVSVESAYVSLIADYPADKLYAKFGFMPTEPDSGGMYIKY | not failed
MVLDVFIEVSLVIFVAFLISLVMRMLKQPLIIGYILTGILVSPYFLNIVRFEESISTLGHYGVTILLFMVGISLNPGYFKEIGKISVITGLGQIVFTFSIGFLISIFLGYSYIESMYISIALTFSSTIIIMKLISDKGDIDKLYGKISIGFLIVQDIVAMAILILISAFNVQSGAGELLFLLLSKIVLILTAIYIFTKYALSNFISYASKNQEFLFLFSLMWCFTLASIFHLLGFSSEIGALIAGIVLAMFPERYEIASKVRPLRDFFLILFFVVLGVQMTFETSGSFLIPAIILSIFVLFGNPIIVMILMGAFGYTKKTGFLAGLTVAQISEFSLIIASLGLRNGHLSQGIVSMITLIGIITIAGSSYFITYSEKIYSLLSNYLSIFEKKTKMSEKDFKNKNTGEIILFGADRTGKNILNVIENSKERFLIIDYNPKIIKDLSKRGYNSIYGDASNLELLNELNFKESKMLISTISDIETDILLIKTILKSNKNAIIIVIAHKIEDAIKLYEEGASYVIMPHFLGSIHASLMIQKYGLNIEEFLKEKSNHMESLKKSQELFRHTK | failed
MVLEAFLVKKNEPNWLVVLRTVMPLGLSYIPIGLACGVLLHAAGFNHLLTALISVMVFSGGAQFLIASMLTINAPMTTIILMMFFLELRYALLGSSLSRYLKGQSLPFIFTFAFSMNDENYAVNYLKFATDKHWKPSQALMVEHYSLLFWTVSNIIGSLIGSALTINLQVVDFALTALFIYMAIMQTKSRLIILVAVLCGVLTIGFLVLMKSTLGLVVSTLLASLTGYFIERYLLAHKPESHLLYKVHDPTGQTAMEESDK | failed
MVLETVSKTEPPPLLGPRISFSSDLSDGGDFICITPVMCKEDVVKGSVKVSDFEFLSSENVSPQRMLTADELFSEGKLLPFWQVKHSEKLKNITLKTNEEEEAEKRKVEVKKKDQEINNRDNRVTWFIDEDPSPRPPKCTVLWKELLRLKKQRNPSSSPVTARTVSSLSPSSSTSSSSSLEDAAKREEKEKEGKRGKKGLERTRSASMRIRPMIHVPICTPSKSSLPLPPLFPLSLKKNRVERRA | failed
MVLEVSDHQVLNDAEVAALLENFSSSYDYGENESDSCCTSPPCPQDFSLNFDRAFLPALYSLLFLLGLLGNGAVAAVLLSRRTALSSTDTFLLHLAVADTLLVLTLPLWAVDAAVQWVFGSGLCKVAGALFNINFYAGALLLACISFDRYLNIVHATQLYRRGPPARVTLTCLAVWGLCLLFALPDFIFLSAHHDERLNATHCQYNFPQVGRTALRVLQLVAGFLLPLLVMAYCYAHILAVLLVSRGQRRLRAMRLVVVVVVAFALCWTPYHLVVLVDILMDLGALARNCGRESRVDVAKSVTSGLGYMHCCLNPLLYAFVGVKFRERMWMLLLRLGCPNQRGLQRQPSSSRRDSSWSETSEASYSGL | not failed
MVLKAFFPTCCVSTDSGLLVGRWVPEQSSAVVLAVLHFPFIPIQVKQLLAQVRQASQVGVAVLGTWCHCRQEPEESLGRFLESLGAVFPHEPWLRLCRERGGTFWSCEATHRQAPTAPGAPGEDQVMLIFYDQRQVLLSQLHLPTVLPDRQAGATTASTGGLAAVFDTVARSEVLFRSDRFDEGPVRLSHWQSEGVEASILAELARRASGPICLLLASLLSLVSAVSACRVFKLWPLSFLGSKLSTCEQLRHRLEHLTLIFSTRKAENPAQLMRKANTVASVLLDVALGLMLLSWLHGRSRIGHLADALVPVADHVAEELQHLLQWLMGAPAGLKMNRALDQVLGRFFLYHIHLWISYIHLMSPFVEHILWHVGLSACLGLTVALSLLSDIIALLTFHIYCFYVYGARLYCLKIHGLSSLWRLFRGKKWNVLRQRVDSCSYDLDQLFIGTLLFTILLFLLPTTALYYLVFTLLRLLVVAVQGLIHLLVDLINSLPLYSLGLRLCRPYRLADKPTALQPRGAHLPPPQLWLPPQALLGRPVPQAVPWGAHLPLEAERGQAGLRELLARLAPPHGHSQPSALPGWHQLSWRMSCALWTLLCAPEHGRPCYHTLGLEVIGSEQMWGWPARLAALHHWHCLPWDPLPTCCGHHGGEHSNPRCPEHCPMPTLCTQVQRVRPPQQPQVEGWSPWGLPSGSALAVGVEGPCQDEPPSPRHPLAPSAEQHPASGGLKQSLTPVPSGPGPSLPEPHGVYLRMFPGEVAL | failed
MVLLLDYWDQWAEAYRINGKSINTVYRYKLFRKHLKSRFDGRKLNSIRPIEWQKFINDFAAGKDRKEKTTRKRPRERSKDIVTKMNSYVRGMVKAAINERILFSDFTFGTKTSGVRSSGKVKVLEHHHHHH | failed
MVLLMAVSLSFAQMKNVKEAKSIASDVKPNFNQAEKLINEAIKNPETKDLPDTWDVAGFIQKRFIEEERDKKGVLKQPFDTLKAYNSILKMFEYYTKCDDLAQVPNEKGKIKNKYRKANASTILVERPNLINGGIQFFNLDKNKEALQFFATYVESASYPMLAEQNLAKTDTLLAQIAYYATLAADRVGDKDAIIKYAPAALDDKDGGKFAMQLMADAYKAKGDTAAWVKSLEEGILKFPGNDYFFANLVDYYTSSNQASKAMEFADRMLSTDANNKLYLYVKAYLYHNMKEYDNAIEFYKKAIAADPEYAEAYSNVGLVYLMKAQDYADKATTDINDPKYAEAQATVKKFYEEAKPFYEKARALKPDQKDLWLQGLYRVYYNLNMGPEFEEIDKMMK | failed
MVLSKTASKSDDSIHSTFASRYVRNSISRFEIPKNSIPKEAAYQIINDELKFDGNPRLNLASFVTTWMEPECDKLMMESINKNNVEMDQYPVTTDLQNRCVNMIARLFNAPLGDGEAAIGVGTVGSSEAVMLAGLAFKRQWQNKRKALGLPYDRPNIVTGANIQVCLEKFARYFEVELKEVKLREGYYVMDPDKAVEMVDENTICVVAILGSTLTGEFEDVKLLNDLLVEKNKKTGWDTPIHVDAASGGFIAPFLYPDLEWDFRLPLVKSINVSGHKYGLVYAGIGWVVWRTKTDLPDELIFHINYLGADQPTFTLNFSKGSSQVIAQYYQLIRLGFEGYRNVMDNCRENMMVLRQGLEKTGRFNIVSKENGVPLVAFSLKDSSRHNEFEVAEMLRRFGWIVPAYTMPADAQHVTVLRVVIREDFSRTLAERLVADFEKVLHELDTLPARVHAKMASGKVNGVKKTPEETQREVTAYWKKFVDTKTDKNGVPLVASITNQ | failed
MVLTKKYDKLGHILLNVFIVFCTFEVFIKGVLTLQQESSSGVNAIKIGILLFMIFAIVLKGKIKGMTTKIKGIMFIYLVFFIVLGLKILSINQMSDITGWLSDNNNLNYIFSFVCFIIILNIDIKRESVINTLIVSSTVVMVISFIFFIKNNYYGLAAPDIIQAYSMGFLNKTRMLSIFASPNHAGLYFVMVYLIVDFRGQKNLAMLFKLYKFLLIVCIMLTLSRTAIGILLLYIIIKIIRSKNAKSVVRFGIISLMVVLIGITLWIAISKYNVYFFSASYIKADNRWIKWQVAIEYIKKYWAIGAPFNIKVQMYAYVNSAITSVEFSDNLFLEIASRFGVPLIACIFIFMIKNLRRAFNEKKITDITKILVFIISSITTGSIHFTIPMILFIVYCDKFD | failed
MVLVLDFGSQYTRLIARRLRELRAFSLILPGDAPLEEVLKHRPQALILSGGPRSVFDPDAPRPDPRLFSSGLPLLGICYGMQLLAQELGGRVERAGRAEYGKALLTRHEGPLFRGLEGEVQVWMSHQDAVTAPPPGWRVVAETEENPVAAIASPDGRAYGVQFHPEVAHTPKGMQILENFLELAGVKRDWTPEHVLEELLREVRERAGKDRVLLAVSGGVDSSTLALLLAKAGVDHLAVFVDHGLLRLGEREEVEGALRALGVNLLVVDAKERFLKALKGVEDPEEKRKIIGREFVAAFSQVARERGPFRFLAQGTLYPDVIESAGGHGAAKIKSHHNVGGLPEDLEFELLEPFRLLFKDEVRELALLLGLPDTLRLRHPFPGPGLAVRVLGEVTEERLEILRRADDIFTSLLREWGLYEKVAQALAVLTPVRSVGVAGDERKYGYVLALRAVTTEDFMTADWARLPLEFLDEAARRITRRVPEIGRVVYDLTSKPPATIEWE | not failed
MVLYFLSSIIIAPIKTGDKAPQVDECCLKTVSDLTFFTNNEKYIWPVPDFCVRMELLAFEAIPQLSKKIIEDIPGAYQGCPRMCKVKFKKNHLKGFTLDTIYAELGTTHVIDCIVTPRIEEQELMKTIMEEEDDDDVADVVVESWLKRHKEGRLIMFDELYQQDIQTLKITSSR | failed
MVNDIKKTALAVVTALITAVSAQLSFKIGPVPYTMQNFGVMLSGFLLGPYYGLLSMAIYLALIAFSLPIAAGGGGLGVLIGPTAGFLYGFLISSFLAGVFRRAIWREGSRREVLMLWLSTLVASMPIYLLGFFVFYNFAMIDEKLLIRSESAVRAFNLSFSSPTMVIFAATVLIFLPQDFFVDHLLAVLVFRYVHRMLNERGVEVD | failed
MVNEYKAHSSFILKVVITLIGYWIASILAIIIYSMFFKIETNTFLLCLLLPTPIIWFNILIGMGLTYRCMENLTIYDKHKLWCVFVRDLTLTILATILATLTTMELYQIEHPLKPIEFVFIVGLVLIVGFTIITTLIIKYLKIIKNLKKISKN | failed
MVNFDCVIEELDEKTKEMLRVIDEDADSFAARAEMYYKKRPELIAMVEEFYRSHRSLAERYDLLRPSSVHKHGSDSESHEKSSTCDESSWSEACETHEEYAESEIDNGESKWVDESEIDGIVEEIEPSEVVYSEGNGNSEMMKIEIERLREENKVYSEMVREKDEEKREAIRQMSVAIQMLKEENSELKKRVTNTVVARRNKEGGDSQRKQQMWKPFEFKKIKLEGLWGKGFGNWALPNTDSTSKELMTL | failed
MVNIFWFSLAVIIYSYFIYPFILLIFSAVKQAISDTRYLWKKSQRRVVDKDNLPPVSIIIAAYNEESCIKARVENLLSLDYPQDKLTILIGSDGSQDKTAEILTSFDAVNLKVHIFEKNRGKMSVLNDLVEQVNSDYIVFSDANTHFNKNTIEYLVRHFNHDNIGAVCGELHLVDVDSGDNKDNIYWRYEQVLKFHEARLNALQGANGAIYAIRKELFIPLPANTIVDDFQIAMNVAKQGFRLIYDPEAIAIEEIAPNLQAEEGRRVRIGLGNYQALFTMAWALNPLLGWRFIAYISHKVCRWFVPHLMLITLISNLLLISNPLYQLLFIGQILFYSVAFYGIKKQQKRQKVSSIIGIIAFFVSMNIALMRGFIRYFSSNVQGTWERTTR | failed
MVNLMKNEKEINGKKSHFFSLSESRFMRFLGGNDLIYALIALVLLGIVIFIFDKISYVFQPFIIVFNTIAAPIIVSLVLFYLFNPIVNMMERYRIPRLLGITIIYVAIIGIITLIVNLLIPIIGSQIESFIKNTPNYLHKITRSLDKLNNNTILSGYMGQVNEWLESAQKKIPSMVSDYSDGFGSKLATFAEAVANIGIVIGTTPFVLFFMLKDGHKFKDYTTKIMPPKFRKDFHDLLEKMSVQVGSYIQGQIIVSFCIGLLLFIGYSIIGLKYALVLASIAAVTSVVPYLGPTIAISPAIVIAIITSPLMLLKLAVVWTLVQFFEGHFISPNVMGKTLKIHPLTIIFILLCAGNLMGIVGVIIGIPLYAVLKVLVSHIFMLFKRRYNRYYGNDAGEYTITEEEKGIKQ | failed
